Experiment: soluble on expression in E. coli; label from the status in PepcDB or PDB records

Row | Sequence | soluble on expression in E. coli
1 | MVDIPAGEWQTDACPGWKEGRVCPPEKYLRQTLQIAPFQLSATAVTFAQWDACVDDGGCQEPDTGWAYQTRPNQPPCQAGSPCNYPYDEGWGRGDRPVIHVSWNDAQRYVDWLSQKTGQRYRLPTSEEWEYAAAAGSHARFAWGTKLGKNRGNCNGCGSRWDGKKTAPVASFAPNRFGLYDMVGNVSEWVSTCVPIRSKPGEDNQTCMAYLYRGGAWSYDAKSVGIDTYHSIDADFRANYIGFRVARLEHHHHHH | not soluble
2 | MVDNKVTQSNKLIESSHTLTLNEKRLVLCAASLIDSRKPLPKDGYLTIRADTFAEVFGIDVKHAYAALDDAATKLFNRDIRRYVKGKVVERMRWVFHVKYREGQGCVELGFSPTIIPHLTMLHKEFTSYQLK | soluble
3 | MVDTISVLNPIHLDLSVDPQDNVRISARSTTSSSASTSSDSELMSPRAEELLRMQAELRATRTALAEKDKKMTQIQVTVDAEVQELTEKLFQEAYKMVNTAEARREKAGKLLTESRLEVEVLQAEVRALKELISAPGMGQNHFKQTTSPEHKSTLSKLFNGSSSSSKKQKDAANVSDKKKASSLPSTSTYTLTPSEDREQKEANAVEEIDPILFSEFEFWREAGHPTTSHPFIDRVTVEEVEPCMLFENSELSEEIMKAIRENRVQLEPLNELKPSVRICALTNASRFCPYRVRTGDEEQEWHYVSLIARNRVSYSTFLGLGTIDNFN | not soluble
4 | MVEVVRNKRPPRGLVPRLRRALAALMEELGVGDKGVTVILTGDRRLRALKREWWGEAGKAYRKSVGPFGPGLPRPRAKCQPLIISTWRPHF | soluble
5 | MVFGENQDLIRTHFQKEADKVRAMKTNWGLFTRTRMIAQSDYDFIVTYQQAENEAERSTVLSVFKEKAVYAFVHLMSQISKDDYVRYTLTLIDDMLREDVTRTIIFEDVAVLLKRSPFSFFMGLLHRQDQYIVHITFSILTKMAVFGNIKLSGDELDYCMGSLKEAMNRGTNNDYIVTAVRCMQTLFRFDPYRVSFVNINGYDSLTHALYSTRKCGFQIQYQIIFCMWLLTFNGHAAEVALSGNLIQTISGILGNCQKEKVIRIVVSTLRNLITSNQDVYMKKQAALQMIQNRIPTKLDHLENRKFTDVDLVEDMVYLQTELKKVVQVLTSFDEYENELRQGSLHWSPAHKCEVFWNENAHRLNDNRQELLKLLVAMLEKSNDPLVLCVAAHDIGEFVRYYPRGKLKVEQLGGKEAMMRLLTVKDPNVRYHALLAAQKLMINNWKDLGLEI | not soluble
6 | MVFGPGLCIAHRGTIVVNKGARVGENCRIHACTNIGSGRDNIFLAPKIGNGVYIGPGAKIFGSVEIADNIAIGANSVVNRSFYERGISIAGVPAKKISNKGSDGMVIAATKTVSVPVSQETILEHHHHHH | not soluble
7 | MVGHKYPVKCLEVDKSKGRLVVSHRRAMAERQMEHLKTGALVEGTVQGVKPYGVFVDVFGTSGLLHISQISHDQVANIQSLFLPGEKVKCMVVSFDKQRGRISLSTKALEPHPGDMLRNKQLVYEKAEEMALSYNQRMDSPVRSKNTTSSSTDDIIAGLDIGSLDDLDPILFGTHTNSSNSNTHSDHLKQDSMNGTIPESDI | not soluble
8 | MVGRKRRASMSITDGNGSLSDTVRPGDWVVVAELATPAFSVKNPESYQVASPLPLPLPSTLLGGLMRGASLLGSCTGGIASQSCIKKTGRIVKAAAPLSKPGQILGVEWEVVLRRLRKVLEPDSEEGSTRENRGNRVLDELSRISDALLRGYITPYNPVYAVFVARGRDNANRIEKALWYIDRLGDSESLVSARPVGRCQLAEFRSKSVNTPVALDSAVGGSFTVVYAPARAGRTGRTRRSEAIAIAMPVKKEAVERGYVLVYSEIEVEGSVYGCSVEGIDGRINVAVHESFHEVSGYGIWMPA | not soluble
9 | MVHEEDFKEGYILGFIEAEGSFSVSIKFQRDVFGGVRLDPVFSITQKNREVLEAIKEHLGIGRIMEKAGQPNTYVYVVDNFNELVKLINFLNKYADFMIVKKRQFLMFREIANGLVNGEHLHINGLKRLVKLAYELTKESEKGYRKYDLNHVLSIIDKWDLGRNVSTSL | soluble
10 | MVKGVETKTIVGLEVGTSKVVVVVGEVFPDGVVNVLGVGSCPSKGIDRGSITDLDAVVGSIQRAIEAAESMADCQIMSVTLAITGEHIQSLNESGFVPIAESEVTQEEIDSALHTASSIKLPEGL | not soluble
11 | MVKSLQLAHQLKDKRILLIGGGEVGLTRLYKLMPTGCKLTLVSPDLHKSIIPKFGKFIQNKDQPDYREDAKRFINPNWDPTKNEIYEYIRSDFKDEYLDLENENDAWYIIMTCIPDHPESARIYHLCKERFGKQQLVNVADKPDLCDFYFGANLEIGDRLQILISTNGLSPRFGALVRDEIRNLFTQMGDLALEDAVVKLGELRRGIRLLAPDDKDVKYRMDWARRCTDLFGIQHCHNIDVKRLLDLFKVMFQEQNCSLQFPPRERLLSEYCSS | soluble
12 | MVKVEDAIVARLESHGYHFEILVDPDAIERIRKGNIDIENDLAFPEVYKDVRKGEKASDDSLKEAFKTTVIAQVAIEIVKKGQIQLTTEQRREMYDERRKQIVNLIAREGINPQTNTPHTPYRISQAMDEAKVKIDPLKPAEDQVQNVLKAIMPIIPIRLEKAKIAVKLIGDAYGKLYGELAKSGYM | not soluble
13 | MVKVVGVRFKKAGKIYYFDPGDLEINLHENVIVETARGIEFGQVVVPNTEVSEEEIVAPLKKVIRVATEEDKAHHEDNIRREKEAFDICLQKIANHKLEMKLVGVEYTFDNNKILFYFTADGRVDFRELVKDLASVFRTRIELRQIGVRDEAKMMGGLGVCGRVLCCNSFLGEFQPVSIKMAKEQGLSLNPAKISGACGRLMCCLKYEQEAYEEIISRVPKEGAIVETPDGQGVVMSVSLLKELVKVKLDRENETDLKVYKASEVKVIKDVTREETEEEEIDLDELKQLED | soluble
14 | MVKVYAPASSANMSVGFDVLGAAVTPVDGALLGDVVTVEAAETFSLNNLGRFADKLPSEPRENIVYQCWERFCQELGKQIPVAMTLEKNMPIGSGLGSSACSVVAALMAMNEHCGKPLNDTRLLALMGELEGRISGSIHYDNVAPCFLGGMQLMIEENDIISQQVPGFDEWLWVLAYPGIKVSTAEARAILPAQYRRQDCIAHGRHLAGFIHACYSRQPELAAKLMKDVIAEPYRERLLPGFRQARQAVAEIGAVASGISGSGPTLFALCDKPETAQRVADWLGKNYLQNQEGFVHICRLDTAGARVLEN | soluble
15 | MVLEHCRDAIESHGVETDIISLRGMKIESCRACLSCAKKHRCRIDDGLNDIIDRIRDSEGFIVATPVYFGTARGDLMAALQRIGMVSRASDGFLSWKVGGPIAVARRGGHTATIQELLMFYFINDMIVPGSTYWNMVFGWAPGEVEDDSEGIETIRRFGENVAELIKRINGGSLEHHHHHH | not soluble
16 | MVLEKIEPAQEEHEKYHSNVKELSHKFGIPNLVARQIVNSCAQCQQKGEAIHGQVNAELGTWQMDCTHLEGKIIIVAVHVASGFIEAEVIPQESGRQTALFLLKLASRWPITHLHTDNGANFTSQEVKMVAWWIGIEQSFGVPYNPQSQGVVEAMNHHLKNQISRIREQANTIETIVLMAVHCMNFKRRGGIGDMTPSERLINMITTEQE | soluble
17 | MVLGEYYAVAGHIGFGGKADARHMGNDPRRALVHPPFLPDFGQHIFFHRALEPENRWKRMAGRPRTSAARAFCRQ | not soluble
18 | MVLIKEFRVVLPCSVQEYQVGQLYSVAEASKNETGGGEGIEVLKNEPYEKDGEKGQYTHKIYHLKSKVPAFVRMIAPEGSLVFHEKAWNAYPYCRTIVTNEYMKDDFFIKIETWHKPDLGTLENVHGLDPNTWKTVEIVHIDIADRSQVEPADYKADEDPALFQSVKTKRGPLGPNWKKELANSPDCPQMCAYKLVTIKFKWWGLQSKVENFIQKQEKRIFTNFHRQLFCWIDKWIDLTMEDIRRMEDETQKELETMRKRGSVRGTSAADV | soluble
